Experimental data: patent US20220017574A1 (Janssen / Centocor, published 2022)

Legend:
Assay in all cases: sandwich ELISA: antibody coated at 1 µg/ml, purified F protein titrated (after 4 weeks at 4 °C), detection with biotinylated CR9506
[1] = target: T1, control pre-fusion F protein RSV150042 (respiratory syncytial virus subgroup A, UniProt P03420 27-109; P03420 137-513)
T1 construct: Control protein described in WO2017/174568; also called PRPM

[2] = target: T2, pre-fusion RSV F protein RSV180305 (respiratory syncytial virus subgroup A …, UniProt P12568 27-109; P03420 137-513)
T2 construct: Soluble F ectodomain; also called RSV pre-F (RSV180305)

[3] = target: T3, pre-fusion RSV F protein RSV172527 (respiratory syncytial virus subgroup A …, UniProt P12568 27-109; P03420 137-513)
T3 construct: Soluble F ectodomain
T3 chain 1: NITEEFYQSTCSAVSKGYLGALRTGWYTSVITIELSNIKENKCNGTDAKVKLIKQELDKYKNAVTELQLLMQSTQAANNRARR
T3 chain 2: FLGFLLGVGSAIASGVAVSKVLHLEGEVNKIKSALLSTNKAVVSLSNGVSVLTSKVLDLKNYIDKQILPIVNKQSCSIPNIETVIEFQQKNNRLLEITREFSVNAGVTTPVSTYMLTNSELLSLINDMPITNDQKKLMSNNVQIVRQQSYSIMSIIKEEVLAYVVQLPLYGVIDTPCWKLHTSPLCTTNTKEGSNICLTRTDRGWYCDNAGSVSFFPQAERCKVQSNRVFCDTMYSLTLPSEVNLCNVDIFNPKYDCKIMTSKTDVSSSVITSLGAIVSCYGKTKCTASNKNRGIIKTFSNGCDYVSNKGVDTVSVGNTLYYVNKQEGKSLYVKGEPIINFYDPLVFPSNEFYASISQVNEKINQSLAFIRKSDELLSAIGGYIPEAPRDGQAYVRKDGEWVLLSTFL

Measured: binding result

B1: monoclonal antibody CR9506 (antibody, human IgG1, kappa, V domains shown)
VH: EVQLVQSGAEVKKPGSSVKVSCKASGGTFSRSLITWVRQAPGQGLEWMGEISLVFGSAKNAQKFQGRVTITADESTSTAHMEMISLKHEDTAVYYCAAHQYGSGTHNNFWDESELRFDLWGQGTLVTVSS
VL: DIVMTQSPSSLSASVGDRVTIACRASQSIGTYLNWYQQKPGKAPKLLIYAASSLQSGVPSRFSGSGSGTHFTLAISSLQAEDFATYSCQQSYTIPYTFGQGTKLEIKR
notes: In the ELISA, CR9506 was coated as a capture antibody and also used biotinylated for detection; also called Mab CR9506
binds: all assays above
